The supplement of paper PMC10724198
± gives the standard deviation of the averaged measurements.

Test system: Saccharomyces cerevisiae
Assay: protein stability index of tFT-peptide fusion (C-terminal peptide) (PSI (0-1 scale)); higher = more stable (slower turnover)
Conditions: genetic background: wild type; temperature: 30 C
Experimental: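 Multiplexed protein stability (MPS) profiling in S. cerevisiae. Random 12-aa peptides (tFT-X12 library) are fused to the C-terminus of a sfGFP-mCherry tandem fluorescent timer, after mCherry and a GGGS linker. Cells are FACS-sorted into 8 mCherry/sfGFP bins and deep-sequenced. The protein stability index (PSI) is the read-weighted bin average, scaled from 0 (unstable) to 1 (stable). Only peptides with >10 reads are reported; cells were grown at 30 °C in SC-His with glucose.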
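Note: PSI is a weighted mean of sequencing reads over stability bins, variants kept only with over 10 reads, mCherry proximal and sfGFP distal, peptide attached via GGGS linker.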

Sequence	protein stability index
FTPLPHAHPPPP	0.664 ± 0.0034
FTRFWTKANDPT	0.6913 ± 0.0014
FTVSPFIFLFSP	0.653 ± 0.0074
FVCRQSGIWHLR	0.686 ± 0.029
FVFGSVLPGPTC	0.692 ± 0.0098
FVGVRTLSRIKI	0.696 ± 0.053
FVHSTLPPSFSI	0.735 ± 0.019
FVIAGDLYGLYV	0.658 ± 0.045
FVKEGRVGTARS	0.687 ± 0.099
FVPFVLFLLRPL	0.582 ± 0.022
FVPQPFTPPSSF	0.685 ± 0.065
FVRFLVGGLGRW	0.606 ± 0.05
FVRLFSGTLKSV	0.687 ± 0.033
FVSTSFPPWFSL	0.684 ± 0.019
FVYHGLVGKRMV	0.666 ± 0.051
FWECEYVIDDVD	0.69053 ± 0.00035
FWEHFVLSVRPE	0.758 ± 0.076
FWFFRGALVHPA	0.599 ± 0.019
FWSCSTGHERVV	0.711 ± 0.03
FYFRFPGFLAGF	0.5687 ± 0.0052
FYGCRLLFLKAR	0.5273 ± 0.00073
FYYRYDRRTRCV	0.548 ± 0.012
GAAARSGSRKEL	0.631 ± 0.029
GAAVSGGRARCP	0.712 ± 0.064
GACDGEGGSRVR	0.611 ± 0.0075
GAEPTPYVAEAI	0.701 ± 0.026

Sequence	protein stability index
GAFSVPKAKNAL	0.699 ± 0.1
GAGAHVPCSGRQ	0.6754 ± 0.0034
GAGEGVGSVVVR	0.632 ± 0.052
GAGGGGNLGWLR	0.6788 ± 0.0063
GAGGGSGGGQPG	0.656 ± 0.032
GAGGSGRRIGCR	0.762 ± 0.052
GAGGVRCPWVFG	0.674 ± 0.0075
GAGNVGSGCGGG	0.631 ± 0.035
GAGRGRLGVGPV	0.67 ± 0.066
GAGRRRAQEQQT	0.728 ± 0.015
GAKHDSSRQSLR	0.746 ± 0.086
GALARFEGAVRV	0.702 ± 0.012
GAMLAGRHGWGL	0.715 ± 0.04
GAPRYRLQRPVP	0.672 ± 0.029
GAPTPPGAPPPA	0.6642 ± 0.0048
GARGGGQSSFGE	0.666 ± 0.012
GARGRGLVTESA	0.703 ± 0.035
GARVGDRALASG	0.7089 ± 0.0069
GATDMVTSGEWV	0.757 ± 0.021
GATLETPIGCGR	0.666 ± 0.0074
GAVHQLGTCLFF	0.671 ± 0.045
GAYSSFNGNSGD	0.681 ± 0.064
GCCGGGGVEGLE	0.695 ± 0.022
GCGFYRTSRVPS	0.717 ± 0.059
GCGGVWGRSEKY	0.684 ± 0.019
GCGHVFEVNYEC	0.6206 ± 0.0053

Sequence	protein stability index
GCGKRVVVVSEL	0.6386 ± 0.00072
GCGLGEEGSSGV	0.647 ± 0.0091
GCGRYWGVVRGC	0.66 ± 0.037
GCHRRDALRTGD	0.667 ± 0.053
GCLFLCPLSPLI	0.685 ± 0.026
GCLIAGGIDCPP	0.66 ± 0.072
GCPRSCYIPSSV	0.72 ± 0.011
GCPSGRDIQSSH	0.643 ± 0.01
GCRELVRCVMLG	0.669 ± 0.083
GCRRGFRKGQDC	0.645 ± 0.023
GCSACLVSSLAG	0.63129 ± 4e-05
GCSGRRGRGGRG	0.743 ± 0.046
GCTTDQIENEIR	0.704 ± 0.033
GCYGRVLELAWR	0.552 ± 0.035
GDDGGSGGCVER	0.6606 ± 0.0051
GDDVGTEVIVET	0.684 ± 0.0094
GDGQETEKNNAE	0.604 ± 0.046
GDGRCAVPFWWG	0.805 ± 0.074
GDKGLRPNMGLV	0.645 ± 0.0099
GDRGGLARAGGA	0.753 ± 0.065
GDSGPDDDLGIS	0.667 ± 0.065
GDSWVVRSGVWV	0.734 ± 0.13
GEAASEKKQEAG	0.644 ± 0.084
GEDGCGGSEAGG	0.656 ± 0.028
GEGALTGGAGGQ	0.647 ± 0.0074
GEGCPAGGHGCE	0.6864 ± 0.0063

Sequence	protein stability index
GEGGGAGGLEWG	0.687 ± 0.081
GEGRWWGSFWVG	0.672 ± 0.019
GEGSQTGSLIPL	0.71 ± 0.031
GENAIVEVWAGG	0.686 ± 0.022
GFCCLGGVRPSV	0.655 ± 0.027
GFCRKESVRCEK	0.683 ± 0.018
GFDFLHHIVASS	0.728 ± 0.017
GFEAFGPFIPAF	0.681 ± 0.019
GFEVAFSCSSWW	0.716 ± 0.038
GFGKVIMEIESI	0.715 ± 0.043
GFLGCGSGCGGG	0.777 ± 0.1
GFLPDSKVKNPF	0.673 ± 0.029
GFMSFAVTCGLL	0.688 ± 0.11
GFQIVCSAGERV	0.611 ± 0.027
GFSLLGPFAFWV	0.688 ± 0.066
GFSSSFAGGLLF	0.763 ± 0.036
GFSTCCLFWLTV	0.529 ± 0.029
GFVLSFADLLGV	0.653 ± 0.054
GFVQGNNGFLMK	0.682 ± 0.034
GFWLVSCPWLLF	0.612 ± 0.14
GFYAMWNSIFWF	0.743 ± 0.001
GGAAGRRAAEVG	0.694 ± 0.013
GGAPAPPSRRPW	0.696 ± 0.032
GGAVSRVGEGGR	0.785 ± 0.02
GGCCLWVGFPGG	0.6957 ± 0.0051
GGCSLRWARCRW	0.686 ± 0.078

Sequence	protein stability index
GGCVSRPLGRCV	0.648 ± 0.088
GGDGAVSRRWGR	0.685 ± 0.015
GGDGGLVMGGGN	0.684 ± 0.018
GGDVCGWWCWRG	0.645 ± 0.098
GGDWVVVALLGV	0.596 ± 0.017
GGEVGRGRLGVV	0.628 ± 0.018
GGFALIWQRVCP	0.705 ± 0.011
GGGACRVCGCEV	0.648 ± 0.0067
GGGECLWNKQAV	0.687 ± 0.024
GGGGAGGGAGGG	0.616 ± 0.042
GGGGCVGEWWGR	0.7423 ± 0.0039
GGGGEGPGKSPR	0.669 ± 0.14
GGGGFLGVVGVG	0.58 ± 0.01
GGGGGGGGSLRV	0.663 ± 0.038
GGGGGGGGVKGV	0.66 ± 0.02
GGGGGGSTPALG	0.667 ± 0.028
GGGGGLRGRGVR	0.682 ± 0.057
GGGGGLVGGCVA	0.696 ± 0.081
GGGGGWGVAGGV	0.689 ± 0.013
GGGGLGTAVVGV	0.6748 ± 0.0024
GGGGSTIGVYVL	0.686 ± 0.0047
GGGGVVGGLLCS	0.761 ± 0.027
GGGKINSLHGAG	0.681 ± 0.041
GGGLGGAGFRGG	0.661 ± 0.051
GGGRGGARVGQL	0.661 ± 0.013
GGGRGVVVTCST	0.713 ± 0.038

Sequence	protein stability index
GGGRRVRRGGGR	0.678 ± 0.056
GGGSFVGLDFGG	0.6567 ± 0.0036
GGGVGGGVGQRG	0.705 ± 0.086
GGGVLLWEGGGW	0.711 ± 0.02
GGGVRWRVGRGG	0.686 ± 0.0082
GGGVSFWLGAVA	0.647 ± 0.0081
GGGVVRGLEQRA	0.637 ± 0.074
GGGVYPAGVVSG	0.658 ± 0.01
GGGWGLRVSCGT	0.656 ± 0.071
GGGWGRSKTETT	0.672 ± 0.023
GGGWGWAGENTR	0.698 ± 0.038
GGILSRVFFLCG	0.679 ± 0.017
GGIQPEQYLNTL	0.688 ± 0.019
GGIVVRGVGVRC	0.661 ± 0.04
GGKGGWHRRWGC	0.643 ± 0.062
GGLGGVRAGREG	0.711 ± 0.02
GGLGREKLGGWR	0.65 ± 0.091
GGLICRQGVGRG	0.748 ± 0.033
GGLLSTVVVRVL	0.524 ± 0.022
GGLRGERAGTDG	0.637 ± 0.02
GGLRGRPPASHR	0.727 ± 0.074
GGLSGRFRSPSL	0.754 ± 0.081
GGLWGSGGASGG	0.742 ± 0.073
GGMDEVFRAHGP	0.712 ± 0.018
GGMRGGYRGRCV	0.679 ± 0.039
